Measurements: PMC11770335, “Transcriptome-scale analysis uncovers conserved residues in the hydrophobic core of the bacterial RNA chaperone Hfq required for small regulatory RNA stability”

Experiments:
Conditions in all cases: protein: recombinant; chain copies: 6; single strand
Hfq V22A [1] = target: T1, Hfq V22A (Escherichia coli, UniProt P0A6X3 1-102, V22A); assay: X-ray crystallography; one pA4 traced at distal face (Methods says proximal); 0.2 M LiSO4, 0.05 M zinc acetate, Bis-Tris pH 7.5; ITC: 20 mM Tris-HCl pH 7.5, 100 mM NaCl, 20 mM KCl, 30°C; plus 5 mM MgCl2 for U6; Hfq hexamer 10-18 µM in cell
Hfq G34A [2] = target: T2, Hfq G34A (Escherichia coli, UniProt P0A6X3 1-102, G34A); assay: ITC; 5 mM MgCl2; N 0.83 RNA/hexamer; second weaker event offset; ITC: 20 mM Tris-HCl pH 7.5, 100 mM NaCl, 20 mM KCl, 30°C; plus 5 mM MgCl2 for U6; Hfq hexamer 10-18 µM in cell
Hfq V22A [3] = target: T1, Hfq V22A; assay: ITC; 5 mM MgCl2; N 1.02 RNA/hexamer; second weaker event offset; ITC: 20 mM Tris-HCl pH 7.5, 100 mM NaCl, 20 mM KCl, 30°C; plus 5 mM MgCl2 for U6; Hfq hexamer 10-18 µM in cell
Hfq WT [4] = target: T3, Hfq WT (Escherichia coli, UniProt P0A6X3 1-102); assay: ITC; 5 mM MgCl2; N 0.96 RNA/hexamer; second weaker event offset; ITC: 20 mM Tris-HCl pH 7.5, 100 mM NaCl, 20 mM KCl, 30°C; plus 5 mM MgCl2 for U6; Hfq hexamer 10-18 µM in cell
Hfq G34A [5] = target: T2, Hfq G34A; assay: ITC; no Mg2+ listed; N 0.75 RNA/hexamer; ITC: 20 mM Tris-HCl pH 7.5, 100 mM NaCl, 20 mM KCl, 30°C; plus 5 mM MgCl2 for U6; Hfq hexamer 10-18 µM in cell
Hfq WT [6] = target: T3, Hfq WT; assay: ITC; no Mg2+ listed; N 1.31 RNA/hexamer; ITC: 20 mM Tris-HCl pH 7.5, 100 mM NaCl, 20 mM KCl, 30°C; plus 5 mM MgCl2 for U6; Hfq hexamer 10-18 µM in cell
Hfq V22A [7] = target: T1, Hfq V22A; assay: ITC; no Mg2+ listed; N 1.43 RNA/hexamer; ITC: 20 mM Tris-HCl pH 7.5, 100 mM NaCl, 20 mM KCl, 30°C; plus 5 mM MgCl2 for U6; Hfq hexamer 10-18 µM in cell

B1: pA4 (ssRNA)
RNA: AAAA
Q: Does B1 bind (Hfq V22A [1])?
A: binds

B2: U6 (ssRNA)
RNA: UUUUUU
Q: B2 was tested. Which Kd (Hfq G34A [2]) did it give?
A: 19.3 ± 8.3 nM

Q: What about the Kd (Hfq V22A [3]) of the same binder?
A: 56.6 ± 7.5 nM

Q: What about the Kd (Hfq WT [4]) of the same binder?
A: 42.2 ± 12.8 nM

B3: A17 (ssRNA)
RNA: AAAAAAAAAAAAAAAAA
Q: B3 was tested. Which Kd (Hfq G34A [5]) did it give?
A: 26.3 ± 13.2 nM

Q: And the Kd (Hfq WT [6])?
A: 51.5 ± 18 nM

Q: What about the Kd (Hfq V22A [7]) of the same binder?
A: 10.5 ± 3.4 nM
